This data set in a line: yeast display, Sf9 membrane polyspecificity reagent, FACS + sequencing; frameworks hold sequencing errors. Summed up: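 In a synthetic yeast display library (Saccharomyces cerevisiae BJ5465), nanobody expression was induced with galactose for 36–48 hours. FACS gates were set low and high (top ~1%) using anti-HA fluorescence for expression and streptavidin fluorescence for binding of the Sf9 membrane reagent. Each polyreactivity label is drawn from the gate of origin.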
Consider “QVQLVESGGGLVQAGGSLRLSCAASGFIIAYYAMGWYRQAPGKEREWVAAITSDGGSTYYADSVKGRFTISRDNAKNTVYLQMNSLKPEDTAVYYCAAQGYPYGRLWGGYYRYDYWGQGTQVTVSS”, for which the “polyreactivity (PSR sort gate)” value was “high polyreactivity”. The result for “QVQLVESGGGLVQAGGSLRLSCAASGSTRYWYAMGWYRQAPGKEREFFAGISIGGRTNYADSVKGRFTISRDNAKNTVYLQMNSLKPEDTAVYYCNAENTYVGSRYRPYNYWGQGTLVTVSS” reads “low polyreactivity”; that for “QVQLVESGGGLVQAGGSLRLSCAASGITLAGYVMGWYRQAPGKERELVADISSSGDSTYYADSVKGRFTISRDNAKNTVYLQMNSLKPEDTAVYYCADEEIIPLIYKGYPFDYWGQGTQVTVSS”, “low polyreactivity”; that for “QVQLVESGGGLVQAGGSLRLSCAASGFTFTRYALGWYRQAPGKERELVAAISWSGGSTYYADSVKGRFTISRDNAKNTVYLQMNSLKPEDTAVYYCAKRGTVRQGGYGYWGQGTQVTVSS”, “high polyreactivity”. The result for “QVQLVESGGGLVQAGGSLPLSCAASASIFSYYDMGWYRQAPGKERELVAAISWSGGSTYYADSVKGRFTISRDNAKNTVYLQMNSLKPEDTAVYYCAAGTYPYYWGQGTQVTVSS” reads “low polyreactivity”. The result for “QVQRVESGGGLVQAGGSLRLSCAASGSIFYVYVMGWYRLAPGKERELVAGISYRGGSTYYADSVKGRFTISRDNAKNTVYLQMNSLKPEDTAVYYCNAGVWTYWHIEMDYWGQGTQVTVSS” reads “low polyreactivity”. With “QVQLVESGGGLVQAGGSLRLSCAASGIIFYDYAMGWYRPAPGKERELVAAINYSGGSTYYADSVKGRFTISRDNAKNTVYLQMNSLKPEDTAVYYCAADNAVWEYDYWGQGSQVTVSS”, the “polyreactivity (PSR sort gate)” value is recorded as “low polyreactivity”. To “QVQLVESGGGIVQAGGSLSLSCRACGRSFAFYSMGWYRQEPGKERELVAAITRTGSTSYADSVNGRFTISRDNAKNTVYLQMNSLKPEDTAVYYCATVGYPYTLWHQMVYWGQGTQVTVSS” belongs “low polyreactivity”; to “QVQLVESGGGLVQAGGSLRLSCAASGRILYDYDMGWYRQAPGKERELVATISRGGGTNYADSVKGRFTISRDNAKNNVYLQMNSLKPEDTAVYYCAAYYSSDGDYWGQGTQVTVSS”, “low polyreactivity”; to “QVHLVESGGGIVQAGGSLRLSCAASVRTFQYYAMGWYRKAPGKEREFVAAITRTGARTYYADSVKGRFTISRDNAKNTVYLQMNSLKPEDTAVYYCAKSLTFYSWRDYGYWGQGTQVTVSS”, “high polyreactivity”. To “QVQLVESGGGLVQAGGSLRLSCAASGRTFWRYTMGWYRQAPGKERELVAAISTNAGTTYYADSVKGRFTISRDNAKNTVYLQMNSLKPEDTAVYYCAARHPGNGYADPTNYYWGQGTQVTVSS” belongs “high polyreactivity”. To “QVQLVESGGGLVQAGGRLRLSCAASGFTFTRYAMGWYRQAPGKERELVAAISWSGGSTYYADSVKGRFTISRDNAKNTVYLQMNSLKPEDTAVYYCAKRGTVRQGGYGYWGQGTQVTVSS” belongs “high polyreactivity”; to “QVHLVESGGGLVQAGGSLRLSCAASGRLSQNAMGGYRQAPGKERELVAAITFSGGSTYYADSVKGRFTISRDNAKNTVYLQMNSLKPEDTAVYYCAADDRPLYWRFPDEMDYWGQGTQVTVSS”, “low polyreactivity”. On to “QVQLVESGGGLVQAGGSLRLSCAASGRIFKINAMGWYRQAPGKERELVATITRDGRTYYADSVKGRFTISRDNAKNTVYLQMNSLKPEDTAVYYCNVRRAFSGWRGYDYWGQGTQVTVSS”, for which the “polyreactivity (PSR sort gate)” value was “high polyreactivity”.

For “QVQLVESGGGLVQAGGSLRLSCAASGSIIHPYTMGWYRPAPGKERELVAGISESSDSTYYADSVKGRFTISRDNAKNTVYLQMNSLKPEYTAVYYCNRDHDWPLSVLEVDYWGQGTQVTVSS”, the “polyreactivity (PSR sort gate)” value is “low polyreactivity”.

As for “QVQLVESGGGLVQAGGSLRLSCAASGFTLTRKAMGWYRQAPGKERELVAAISRSGGSTYYADSVKGRFTISRDNAKNTVYLQMNSLKPEDTAVYYCNAGYGYGYPKYDYWGQGTQVTVSS”, the “polyreactivity (PSR sort gate)” value is “high polyreactivity”.

Take “QVQLVESAGGLVQAGGSLRLSCAASGRIFSPYAMGWYRQAPGKERELVAAIDWDGGGTYYADSVKGRFTISRDNAKNTVYLQMNSLKPEDTAVYYCAAETDLANGTSPSDYWGQGTQVTVSS”: the “polyreactivity (PSR sort gate)” value is “low polyreactivity”.

On to “QVQLVESGGGLVQAGGSLRLSCAASGSNFINNAMGWYRQAPGKERELVAAISYSGGRTYYADSVKGRFTISRDNAKNTVYLQMNSLKPEDTAVYYCAADRSHRMNWGQGTQVTVSS”, for which the “polyreactivity (PSR sort gate)” value is “high polyreactivity”. The result for “QVQLVESGGGLVQAGGSLRLSCAASGSIFSKYAMGWYRQAPVKERELVAAIDWSGGSTYYADSVKGRFTISRDNAKNTVYLQMNSLKPEDTAVYYCNAEYVVADYGYYTIEFDYWGQGTQVTVSS” reads “low polyreactivity”; that for “QVQLVESGGGLVQAGGSLRLSCAASGSTFGFNVMGWYRQAPGKERELVAVITSDGNTYYADSVKGRFTISRDNAKNTVYFQMNSLIPEDTAVYYCAVSELGTPYGYWGQGTQVTVSS”, “low polyreactivity”; that for “QVQLVESGGGLVQAGGSLRLSCADSGRIFYSYTRGWYRPAPGKERELVAAIRKSGGRTYYADSVKGRFTISRDNAKNTVYLQMNSLKPEDTAVYYCATTNYELSYYYWGQGTQVTVSS”, “high polyreactivity”. With “QVQLVESGGGLVQAGGSLRLSCAASGRTITAYTMVWYRQAPVKEREMVASISSGVTYADSVKGRFTISRDNAKNTVYLQMNRLKPEDTAVYYCAARLWYVQGYVPYVHHRFDYWGQGTQVTVSS”, the “polyreactivity (PSR sort gate)” value is “low polyreactivity”. Take “QVQLVESGGGLVQAGGSLRLSCAPSGIIFRIYAMGWYRQAPGKEREFVAAISGSGDSTYYADSVKGRFTISRDNAKNTVYLQMNSLKPEDTAVYYCAADWTLVYYHEDYWGQGSQVTVSS”: the “polyreactivity (PSR sort gate)” value is reported as “high polyreactivity”. With “QVQLVESGGGLVQAGGSLRLSCAASGSIFGWYAMGWYRQAPGKERELVAAIDSATSTDYADSVKGRFTISRDNAKNTVYLQMNSLKPEDTAFYYCAVYSCWIDAEYDYWGQGTQVTGSS”, the “polyreactivity (PSR sort gate)” value is reported as “low polyreactivity”.

For “QVQLVESGGGVVQAGGSLRLSCAASGRIFERNAMGSYRQSPVKERELVARITSGGGTYYADSVKGRFTISRDNAKNTVYLQMNSLKPEDSAVYYSAVQYLYRKYRRYDYWGLGTQVTVSS”, the “polyreactivity (PSR sort gate)” value is listed as “high polyreactivity”.

Turning to “QVQLVESGGGLVQAGGSLRLICAASGSIVKNYAMGWYTQAPGKERELVAVISSGGSTNYADSVKGRFTISRDNAKYTVYLHMNSLIPEDTAVYSCAAERKSRGFWYDYWGQGTQVTVSS”, the “polyreactivity (PSR sort gate)” value was “high polyreactivity”. To “QVQLVESRGGLVQAGGSLRLICAASANNYRYAMGWYRQAPAKEREFVAAISRGGSTFYADSVKGRFTISRDNAKNTVYEQMNRLKPEDSAVFYCDKERYNVYYYSGQGTQVTVSS” belongs “high polyreactivity”; to “QVQLVETGGGLVQAGGTLRLSCAASGRIFRRYAMVWYRQAPGKEREFVAAITDGSTYYADSVKGRFTISRDNAKNTVYLQMNSLNPEDPAVYYCATQFGWSYSRRFYYWGQGTQVTVSS”, “high polyreactivity”; to “QVQLVESGGGLVQAGGSLLLSCAASGSTFAPYAMAWYRQAPRKERELVATISASGGTTYYADSVKGRFTISRDNAKNTVYLQMNSLKPEDTAVYYCAKRRVWWPAHRSYLYASEFGYWGQGTQVTVSS”, “low polyreactivity”. To “QVQLVESGGGLVQAGGSLRLSCAASGFIIANNAMGWYRQAPGKERELVASIRTRGGSTYYADSVKGRFTISRDNAKNTVYLQMNSLKPEDTAVYYSAARPFPRRYDYWGQGTQVTVSS” belongs “low polyreactivity”; to “QVQLVESGGGLVHAGGSIRLSCAASGRIFPAYAMGWYRQAPGKERELVASIRRGGITYADSVKGRFTISRDNAKNTVYLQMNSLKPEDTAVYYCNADYRGWVYHMDYWGQGTQVTVSS”, “low polyreactivity”. To “QVQLVESGGGLVQAGGSLRLTCAASGLTFAGYAMGWYRQAPGKERELVAYITTSGGSTHYADSVKGRFTISRDNAKNTVYLQMNSLKPEDTAVYYCAAEGYPGDNELIGAFDYWGQGTQVTVSS” belongs “low polyreactivity”; to “QVQLVESGGGLVQAGGSLRLSCAASGSIFRVYAMGWYRQAPGKVRELVAVISIAGRTNYADSVKGRFTISRDNAKNTVYLQMNSLKPEDTAVYYCNAEWDLNHLYDSWGQGTQETVSS”, “low polyreactivity”; to “KVQLVESGGGLVQAGGSLRLSCAASGYIVSYYDMGWYRQAPGKERELVAAITAGVAGTYYADSVKGRLTISRDNAKNSVYLQMNSLTPEDTAVFYCAADRYITTVVRMYYSGQGTQVTVSS”, “low polyreactivity”. Regarding “QVQLVESGGGLVQAGGSLRLSCAASGSIFAVYAMGWYRQAPGKERELVAVITRSGGSTYYADSVKGRFTISRDNAKNTVYLQMISLKPEDTAVYYCAARTGYGYTRYEYWGQGTQVTVSS”, the “polyreactivity (PSR sort gate)” value is given as “high polyreactivity”. On to “QVQLVESGGGLVQAGGSLRLSCAASGRIFTYNVMGWYRQAPGKERELVAAIYSSGVRTSYADSVKGRFTISRDNAKNTVYLHMNSLKPEDTALYYCAADKRYHYGLLHDPSYYYDYWGQGTQVTVSS”, for which the “polyreactivity (PSR sort gate)” value is on record as “low polyreactivity”. “QVHLVESGGGLVQAGGSLRLSCAASGRIFDYNTMGWYRQAPGKERELVAAITGGTGSTYYADSVKGRFTISRDNAKNTVYLQMNSLKPEDTAVYYCAAGFHKRVTPEILYDYWGQGTQLTVSS”: the “polyreactivity (PSR sort gate)” value is given as “low polyreactivity”. The result for “QDQLVESGGGLVQAGVSLRLSCAASGSIFNRNAMGWYRQAPGKERELVADISWSGGSTYYADSVKGRFTISRDNAKNTVYLQMNSLKPEDTAVYYCADKSTGRWWRAGYDYWGQGTQVTVSS” reads “high polyreactivity”; that for “QVQLVESGGGLVPAGGSLRLSCAASGSTFTQNARGWYRQAPGKERELVAAISWSGARTYYADSVKGRFTISPDNANNTVYLQMNSLKPEDTAVYYCNNYARKRGTTNDYWGQGTQVTVSS”, “high polyreactivity”; that for “QVQLVESGGGLVQAGGSLRLSCAASGSIFRRNAMGWYRQAPGKEREFVAAITWNGGSTYYADSEKGRFTNSRDNAKNPVYLQRNSLKPEDTAVYYCAARAFYYAGDWYGYWGQGTQVTVSS”, “high polyreactivity”. To “QVQLVESGGGLVQAGGSLRLSCAASGRTFYGYAMGWYRQAPGKERELVAVITRDGSTNYADSVKGRFTISRDNAKNTVYLQMNSLKPEDTAVYDCAAERLAYRVRWRYNQEDYWGQGTQVTVSS” belongs “high polyreactivity”.

(Values after the nanobody polyreactivity screen of Harvey et al. (2022).)
